The record followed here is PMC3348966 (Proteins, 2012).

Read-outs that look alike come from different tables or passages of the source.

A word on the Km: it is the concentration of substrate that gives half-maximal velocity. One may read the kcat as the number of substrate molecules converted per active site and unit of time at saturation. As usually defined, the kcat/Km is the second-order rate constant that governs catalysis at low substrate concentration. One may read the stoichiometry N as a count of units in the complex or per binding partner.

One series deals with XloA (Thermotoga maritima, UniProt Q9WXT1). Kind of series: p-nitrophenol release at […] nm. The series is classed as biochemical. The following applies: data not shown; auxiliary enzyme.
Substrate in series [1]: CC(=O)O[C@@H]1CO[C@@H](Oc2ccc([N+](=O)[O-])cc2)[C@H](O)[C@H]1O
Kind of series: purified protein. Format: biochemical, Thermotoga maritima. The following applies: 0.1 M sodium phosphate pH 7, 60 °C, excess XloA.

Substrate in series [2]: CC(=O)Oc1ccc([N+](=O)[O-])cc1
Kind of series: purified protein. Format: biochemical, Thermotoga maritima. The conditions noted are these: 50 mM citrate-phosphate pH 6, 70 °C (standard assay).

Substrate in series [3]: CC(=O)O[C@H]1[C@H](Oc2ccc([N+](=O)[O-])cc2)OC[C@@H](O)[C@@H]1O
Kind of series: purified protein. The conditions noted are these: 0.1 M sodium phosphate pH 7, 60 °C, excess XloA. Format: biochemical, Thermotoga maritima.

Substrate in series [4]: CC(=O)O[C@@H]1[C@@H](O)[C@H](Oc2ccc([N+](=O)[O-])cc2)OC[C@H]1O
Nature of the series: purified protein. The series is classed as biochemical, Thermotoga maritima. The following applies: 0.1 M sodium phosphate pH 7, 60 °C, excess XloA.

Substrate in series [5]: CCC(=O)Oc1ccc([N+](=O)[O-])cc1
Kind of series: purified protein. The series is classed as biochemical, Thermotoga maritima. The following applies: 50 mM citrate-phosphate pH 6, 70 °C (standard assay).

Series [6] concerns the molecule itself. Kind of series: crystal structure.
Series [7] deals with the molecule itself. Kind of series: crystal structure. The source holds these as a separate data set.

As to `O=[N+]([O-])c1ccc(O[C@@H]2OC[C@@H](O)[C@H](O)[C@H]2O)cc1` [4-nitrophenyl β-D-xylopyranoside], the “p-nitrophenol release at 405 nm” value at XloA is on record as “its activity was confirmed by measuring release of p-nitrophenol from the substrate pNP-Xyl”.

B1: TM0077 (Thermotoga maritima MSB8) (protein)
chain: MAFFDLPLEELKKYRPERYEEKDFDEFWEETLAESEKFPLDPVFERMESHLKTVEAYDVTFSGYRGQRIKGWLLVPKLEEEKLPCVVQYIGYNGGRGFPHDWLFWPSMGYICFVMDTRGQGSGWLKGDTPDYPEGPVDPQYPGFMTRGILDPRTYYYRRVFTDAVRAVEAAASFPQVDQERIVIAGGSQGGGIALAVSALSKKAKALLCDVPFLCHFRRAVQLVDTHPYAEITNFLKTHRDKEEIVFRTLSYFDGVNFAARAKIPALFSVGLMDNICPPSTVFAAYNYYAGPKEIRIYPYNNHEGGGSFQAVEQVKFLKKLFEKG
On to B1, for which the Km in the series “purified protein [1]” worked out at 4.0 ± 0.1 mM; in the series “purified protein [2]”, 0.185 ± 0.026 mM; in “purified protein [3]” it was 3.6 ± 0.5 mM; in the series “purified protein [4]” it was 4.2 ± 0.4 mM; in “purified protein [5]”, 0.137 ± 0.013 mM. The turnover number (kcat) worked out at 78.6 ± 12.9 s⁻¹ in the series “purified protein [1]”; 57.5 ± 2.2 s⁻¹ in the series “purified protein [2]”; 76.1 ± 19.2 s⁻¹ in the series “purified protein [3]”; 70.1 ± 7.7 s⁻¹ in the series “purified protein [4]”; 41.3 ± 1.1 s⁻¹ in the series “purified protein [5]”. In addition, the specificity constant (kcat/Km) in the series “purified protein [1]” was found to be 19700 ± 3300 M⁻¹ s⁻¹; in the series “purified protein [2]” it was 311000 ± 45300 M⁻¹ s⁻¹; in “purified protein [3]”, 21100 ± 6100 M⁻¹ s⁻¹; in “purified protein [4]”, 16700 ± 2400 M⁻¹ s⁻¹; in the series “purified protein [5]”, 302000 ± 29700 M⁻¹ s⁻¹.

B2: TM0077-paraoxon complex (TM0077 with DEP-modified Ser188) (enzyme, Thermotoga maritima, UniProt Q9WXT2 1-325, looked up)
chain: MAFFDLPLEELKKYRPERYEEKDFDEFWEETLAESEKFPLDPVFERMESHLKTVEAYDVTFSGYRGQRIKGWLLVPKLEEEKLPCVVQYIGYNGGRGFPHDWLFWPSMGYICFVMDTRGQGSGWLKGDTPDYPEGPVDPQYPGFMTRGILDPRTYYYRRVFTDAVRAVEAAASFPQVDQERIVIAGGSQGGGIALAVSALSKKAKALLCDVPFLCHFRRAVQLVDTHPYAEITNFLKTHRDKEEIVFRTLSYFDGVNFAARAKIPALFSVGLMDNICPPSTVFAAYNYYAGPKEIRIYPYNNHEGGGSFQAVEQVKFLKKLFEKG
modifications: diethyl-phosphate (DEP) moiety covalently bound to the Oγ atom of Ser188
Consider B2, for which the “stoichiometry N” value in the series “crystal structure [6]” is 6.

B3: native TM0077 (acetyl esterase from Thermotoga maritima) (enzyme, UniProt Q9WXT2 1-325, looked up)
chain: MAFFDLPLEELKKYRPERYEEKDFDEFWEETLAESEKFPLDPVFERMESHLKTVEAYDVTFSGYRGQRIKGWLLVPKLEEEKLPCVVQYIGYNGGRGFPHDWLFWPSMGYICFVMDTRGQGSGWLKGDTPDYPEGPVDPQYPGFMTRGILDPRTYYYRRVFTDAVRAVEAAASFPQVDQERIVIAGGSQGGGIALAVSALSKKAKALLCDVPFLCHFRRAVQLVDTHPYAEITNFLKTHRDKEEIVFRTLSYFDGVNFAARAKIPALFSVGLMDNICPPSTVFAAYNYYAGPKEIRIYPYNNHEGGGSFQAVEQVKFLKKLFEKG
In the case of B3, in the series “crystal structure [6]”, the “stoichiometry N” value was determined as 6.

B4: selenomethionine-substituted TM0077 (acetyl esterase from Thermotoga maritima) (enzyme, UniProt Q9WXT2 1-325, looked up)
chain: MAFFDLPLEELKKYRPERYEEKDFDEFWEETLAESEKFPLDPVFERMESHLKTVEAYDVTFSGYRGQRIKGWLLVPKLEEEKLPCVVQYIGYNGGRGFPHDWLFWPSMGYICFVMDTRGQGSGWLKGDTPDYPEGPVDPQYPGFMTRGILDPRTYYYRRVFTDAVRAVEAAASFPQVDQERIVIAGGSQGGGIALAVSALSKKAKALLCDVPFLCHFRRAVQLVDTHPYAEITNFLKTHRDKEEIVFRTLSYFDGVNFAARAKIPALFSVGLMDNICPPSTVFAAYNYYAGPKEIRIYPYNNHEGGGSFQAVEQVKFLKKLFEKG
modifications: selenomethionine-substituted (selenomethionine in place of methionine)
Take B4: the “stoichiometry N” value in the series “crystal structure [7]” was 6.

B5: TM0077-PMSF complex (TM0077 with PMS-modified Ser188) (enzyme, Thermotoga maritima, UniProt Q9WXT2 1-325, looked up)
chain: MAFFDLPLEELKKYRPERYEEKDFDEFWEETLAESEKFPLDPVFERMESHLKTVEAYDVTFSGYRGQRIKGWLLVPKLEEEKLPCVVQYIGYNGGRGFPHDWLFWPSMGYICFVMDTRGQGSGWLKGDTPDYPEGPVDPQYPGFMTRGILDPRTYYYRRVFTDAVRAVEAAASFPQVDQERIVIAGGSQGGGIALAVSALSKKAKALLCDVPFLCHFRRAVQLVDTHPYAEITNFLKTHRDKEEIVFRTLSYFDGVNFAARAKIPALFSVGLMDNICPPSTVFAAYNYYAGPKEIRIYPYNNHEGGGSFQAVEQVKFLKKLFEKG
modifications: phenylmethyl sulfonyl (PMS) moiety covalently bound to the Oγ atom of Ser188
As to B5, the “stoichiometry N” value in “crystal structure [6]” is 6.
